Sequences and labels used below:
B1: SI-75P3 (other)
chain 1: EIVLTQSPSTLSVSPGERATFSCRASQSIGTNIHWYQQKPGKPPRLLIKYASESISGIPDRFSGSGSGTEFTLTISSVQSEDFAVYYCQQNNNWPTTFGPGTKLTVLGGGGSGGGGSGGGGSGGGGSQVQLQQSGPGLVKPSETLSITCTVSGFSLTNYGVHWIRQAPGKGLEWLGVIWSGGNTDYNTPFTSRFTITKDNSKNQVYFKLRSVRADDTAIYYCARALTYYDYEFAYWGQGTLVTVSSGGGGSGGGGSEVQLVESGGGLVQPGGSLRLSCAASGFTISTNAMSWVRQAPGKGLEWIGVITGRDITYYASWAKGRFTISRDNSKNTLYLQMNSLRAEDTAVYYCARDGGSSAITSNNIWGQGTLVTVSSASTKGPSVFPLAPSSKSTSGGTAALGCLVKDYFPEPVTVSWNSGALTSGVHTFPAVLQSSGLYSLSSVVTVPSSSLGTQTYICNVNHKPSNTKVDKRVEPKSCDKTHTCPPCPAPEAAGGPSVFLFPPKPKDTLMISRTPEVTCVVVDVSHEDPEVKFNWYVDGVEVHNAKTKPREEQYNSTYRVVSVLTVLHQDWLNGKEYKCAVSNKALPAPIEKTISKAKGQPREPQVYTLPPSRDELTKNQVSLSCAVKGFYPSDIAVEWESNGQPENNYKTTPPVLDSDGSFFLVSKLTVDKSRWQQGNVFSCSVMHEALHNHYTQKSLSLSPGGGGGSGGGGSDVVMTQSPSSVSASVGDRVTITCQASQNIRTYLSWYQQKPGKAPKLLIYAAANLASGVPSRFSGSGSGTDFTLTISDLEPGDAATYYCQSTYLGTDYVGGAFGGGTKLTVLGGGGSGGGGSGGGGSGGGGSEVQLVESGGGLVQPGGSLRLSCTASGFTISSYHMQWVRQAPGKGLEYIGTISSGGNVYYASSARGRFTISRPSSKNTVDLQMNSLRAEDTAVYYCARDSGYSDPMWGQGTLVTVSS
chain 2: QSALTQPASVSGSPGQSITISCTGTSSDVGGYNFVSWYQQHPGKAPKLMIYDVSDRPSGVSDRFSGSKSGNTASLIISGLQADDEADYYCSSYGSSSTHVIFGGGTKVTVLGGGGSGGGGSGGGGSGGGGSQVQLQESGGGLVKPGGSLSLSCAASGFTFSSYWMSWVRQAPGKGLEWVANINRDGSASYYVDSVKGRFTISRDDAKNSLYLQMNSLRAEDTAVYYCARDRGVGYFDLWGRGTLVTVSSGGGGSGGGGSDVVMTQSPSTLSASVGDRVTINCQASESISSWLAWYQQKPGKAPKLLIYEASKLASGVPSRFSGSGSGTEFTLTISSLQPDDFATYYCQGYFYFISRTYVNSFGGGTKVEIKRTVAAPSVFIFPPSDEQLKSGTASVVCLLNNFYPREAKVQWKVDNALQSGNSQESVTEQDSKDSTYSLSSTLTLSKADYEKHKVYACEVTHQGLSSPVTKSFNRGECGGDKTHTCPPCPAPEAAGGPSVFLFPPKPKDTLMISRTPEVTCVVVDVSHEDPEVKFNWYVDGVEVHNAKTKPREEQYNSTYRVVSVLTVLHQDWLNGKEYKCAVSNKALPAPIEKTISKAKGQPREPQVYTLPPSRDELTKNQVSLWCLVKGFYPSDIAVEWESNGQPENNYKTTPPVLDSDGSFFLYSKLTVDKSRWQQGNVFSCSVMHEALHNRFTQKSLSLSPGGGGGSGGGGSDIQMTQSPSTLSASVGDRVTITCQASQSISSHLNWYQQKPGKAPKLLIYKASTLASGVPSRFSGSGSGTEFTLTISSLQPDDFATYYCQQGYSWGNVDNVFGGGTKVTVLGGGGSGGGGSGGGGSGGGGSEVQLLESGGGLVQPGGSLSLSCAASGFSFSSGYDMCWVRQAPGKGLEWIACIAAGSAGITYDANWAKGRFTISRDNSKNTLYLQMNSLRAEDTAVYYCARSAFSFDYAMDLWGQGTLVTVSS
notes: penta-miniGNC; D1 αEGFR, D2 αHER3, D3 αCD3 (Fab), D4 α4-1BB, D5 αPD-L1
B2: SI-75P6 (other)
chain 1: DVVMTQSPSTLSASVGDRVTINCQASESISSWLAWYQQKPGKAPKLLIYEASKLASGVPSRFSGSGSGTEFTLTISSLQPDDFATYYCQGYFYFISRTYVNSFGGGTKVEIKGGGGSGGGGSGGGGSGGGGSEVQLVESGGGLVQPGGSLRLSCAASGFTISTNAMSWVRQAPGKGLEWIGVITGRDITYYASWAKGRFTISRDNSKNTLYLQMNSLRAEDTAVYYCARDGGSSAITSNNIWGQGTLVTVSSGGGGSGGGGSQVQLQQSGPGLVKPSETLSITCTVSGFSLTNYGVHWIRQAPGKGLEWLGVIWSGGNTDYNTPFTSRFTITKDNSKNQVYFKLRSVRADDTAIYYCARALTYYDYEFAYWGQGTLVTVSSASTKGPSVFPLAPSSKSTSGGTAALGCLVKDYFPEPVTVSWNSGALTSGVHTFPAVLQSSGLYSLSSVVTVPSSSLGTQTYICNVNHKPSNTKVDKRVEPKSCDKTHTCPPCPAPEAAGGPSVFLFPPKPKDTLMISRTPEVTCVVVDVSHEDPEVKFNWYVDGVEVHNAKTKPREEQYNSTYRVVSVLTVLHQDWLNGKEYKCAVSNKALPAPIEKTISKAKGQPREPQVYTLPPSRDELTKNQVSLSCAVKGFYPSDIAVEWESNGQPENNYKTTPPVLDSDGSFFLVSKLTVDKSRWQQGNVFSCSVMHEALHNHYTQKSLSLSPGGGGGSGGGGSDVVMTQSPSSVSASVGDRVTITCQASQNIRTYLSWYQQKPGKAPKLLIYAAANLASGVPSRFSGSGSGTDFTLTISDLEPGDAATYYCQSTYLGTDYVGGAFGGGTKLTVLGGGGSGGGGSGGGGSGGGGSEVQLVESGGGLVQPGGSLRLSCTASGFTISSYHMQWVRQAPGKGLEYIGTISSGGNVYYASSARGRFTISRPSSKNTVDLQMNSLRAEDTAVYYCARDSGYSDPMWGQGTLVTVSS
chain 2: QSALTQPASVSGSPGQSITISCTGTSSDVGGYNFVSWYQQHPGKAPKLMIYDVSDRPSGVSDRFSGSKSGNTASLIISGLQADDEADYYCSSYGSSSTHVIFGGGTKVTVLGGGGSGGGGSGGGGSGGGGSQVQLQESGGGLVKPGGSLSLSCAASGFTFSSYWMSWVRQAPGKGLEWVANINRDGSASYYVDSVKGRFTISRDDAKNSLYLQMNSLRAEDTAVYYCARDRGVGYFDLWGRGTLVTVSSGGGGSGGGGSEIVLTQSPSTLSVSPGERATFSCRASQSIGTNIHWYQQKPGKPPRLLIKYASESISGIPDRFSGSGSGTEFTLTISSVQSEDFAVYYCQQNNNWPTTFGPGTKLTVLRTVAAPSVFIFPPSDEQLKSGTASVVCLLNNFYPREAKVQWKVDNALQSGNSQESVTEQDSKDSTYSLSSTLTLSKADYEKHKVYACEVTHQGLSSPVTKSFNRGECGGDKTHTCPPCPAPEAAGGPSVFLFPPKPKDTLMISRTPEVTCVVVDVSHEDPEVKFNWYVDGVEVHNAKTKPREEQYNSTYRVVSVLTVLHQDWLNGKEYKCAVSNKALPAPIEKTISKAKGQPREPQVYTLPPSRDELTKNQVSLWCLVKGFYPSDIAVEWESNGQPENNYKTTPPVLDSDGSFFLYSKLTVDKSRWQQGNVFSCSVMHEALHNRFTQKSLSLSPGGGGGSGGGGSDIQMTQSPSTLSASVGDRVTITCQASQSISSHLNWYQQKPGKAPKLLIYKASTLASGVPSRFSGSGSGTEFTLTISSLQPDDFATYYCQQGYSWGNVDNVFGGGTKVTVLGGGGSGGGGSGGGGSGGGGSEVQLLESGGGLVQPGGSLSLSCAASGFSFSSGYDMCWVRQAPGKGLEWIACIAAGSAGITYDANWAKGRFTISRDNSKNTLYLQMNSLRAEDTAVYYCARSAFSFDYAMDLWGQGTLVTVSS
notes: penta-miniGNC, IgG1 knobs-into-holes heterodimer; D1 αCD3, D2 αHER3, D3 αEGFR (Fab), D4 α4-1BB, D5 αPD-L1; also called penta-miniGNC (SI-75P6)
B3: SI-75P9 (other)
chain 1: EIVLTQSPSTLSVSPGERATFSCRASQSIGTNIHWYQQKPGKPPRLLIKYASESISGIPDRFSGSGSGTEFTLTISSVQSEDFAVYYCQQNNNWPTTFGPGTKLTVLGGGGSGGGGSGGGGSGGGGSQVQLQQSGPGLVKPSETLSITCTVSGFSLTNYGVHWIRQAPGKGLEWLGVIWSGGNTDYNTPFTSRFTITKDNSKNQVYFKLRSVRADDTAIYYCARALTYYDYEFAYWGQGTLVTVSSGGGGSGGGGSQVQLQESGGGLVKPGGSLRLSCAASGFTFSSYWMSWVRQAPGKGLEWVANINRDGSASYYVDSVKGRFTISRDDAKNSLYLQMNSLRAEDTAVYYCARDRGVGYFDLWGRGTLVTVSSASTKGPSVFPLAPSSKSTSGGTAALGCLVKDYFPEPVTVSWNSGALTSGVHTFPAVLQSSGLYSLSSVVTVPSSSLGTQTYICNVNHKPSNTKVDKRVEPKSCDKTHTCPPCPAPEAAGGPSVFLFPPKPKDTLMISRTPEVTCVVVDVSHEDPEVKFNWYVDGVEVHNAKTKPREEQYNSTYRVVSVLTVLHQDWLNGKEYKCAVSNKALPAPIEKTISKAKGQPREPQVYTLPPSRDELTKNQVSLSCAVKGFYPSDIAVEWESNGQPENNYKTTPPVLDSDGSFFLVSKLTVDKSRWQQGNVFSCSVMHEALHNHYTQKSLSLSPGGGGGSGGGGSDVVMTQSPSSVSASVGDRVTITCQASQNIRTYLSWYQQKPGKAPKLLIYAAANLASGVPSRFSGSGSGTDFTLTISDLEPGDAATYYCQSTYLGTDYVGGAFGGGTKLTVLGGGGSGGGGSGGGGSGGGGSEVQLVESGGGLVQPGGSLRLSCTASGFTISSYHMQWVRQAPGKGLEYIGTISSGGNVYYASSARGRFTISRPSSKNTVDLQMNSLRAEDTAVYYCARDSGYSDPMWGQGTLVTVSS
chain 2: DVVMTQSPSTLSASVGDRVTINCQASESISSWLAWYQQKPGKAPKLLIYEASKLASGVPSRFSGSGSGTEFTLTISSLQPDDFATYYCQGYFYFISRTYVNSFGGGTKVEIKGGGGSGGGGSGGGGSGGGGSEVQLVESGGGLVQPGGSLRLSCAASGFTISTNAMSWVRQAPGKGLEWIGVITGRDITYYASWAKGRFTISRDNSKNTLYLQMNSLRAEDTAVYYCARDGGSSAITSNNIWGQGTLVTVSSGGGGSGGGGSQSALTQPASVSGSPGQSITISCTGTSSDVGGYNFVSWYQQHPGKAPKLMIYDVSDRPSGVSDRFSGSKSGNTASLIISGLQADDEADYYCSSYGSSSTHVIFGGGTKVTVLRTPKANPTVTLFPPSSEELQANKATLVCLISDFYPGAVTVAWKADGSPVKAGVETTKPSKQSNNKYAASSYLSLTPEQWKSHRSYSCQVTHEGSTVEKTVAPTECSGGDKTHTCPPCPAPEAAGGPSVFLFPPKPKDTLMISRTPEVTCVVVDVSHEDPEVKFNWYVDGVEVHNAKTKPREEQYNSTYRVVSVLTVLHQDWLNGKEYKCAVSNKALPAPIEKTISKAKGQPREPQVYTLPPSRDELTKNQVSLWCLVKGFYPSDIAVEWESNGQPENNYKTTPPVLDSDGSFFLYSKLTVDKSRWQQGNVFSCSVMHEALHNRFTQKSLSLSPGGGGGSGGGGSDIQMTQSPSTLSASVGDRVTITCQASQSISSHLNWYQQKPGKAPKLLIYKASTLASGVPSRFSGSGSGTEFTLTISSLQPDDFATYYCQQGYSWGNVDNVFGGGTKVTVLGGGGSGGGGSGGGGSGGGGSEVQLLESGGGLVQPGGSLSLSCAASGFSFSSGYDMCWVRQAPGKGLEWIACIAAGSAGITYDANWAKGRFTISRDNSKNTLYLQMNSLRAEDTAVYYCARSAFSFDYAMDLWGQGTLVTVSS
notes: penta-miniGNC; D1 αEGFR, D2 αCD3, D3 αHER3 (Fab), D4 α4-1BB, D5 αPD-L1

For 3 molecules, Kd results are on record in patent publication US20230114801A1 (SYSTIMMUNE, published 2023).

A word on the Kd: it is the concentration at which binding is half-saturated. Read a low Kd as higher affinity.

In one experiment the target is T1, human EGFR (human, UniProt P00533 25-645, limits assumed).
T1 construct: Soluble antigen in Octet; construct not described
Nature of the experiment: BLI (Octet), binder on AHC sensor, 100 nM human antigen, 1:1 fit. In general terms: In BLI a coated tip is dipped into the sample, and binding shifts an interference pattern.
Regarding B1, the Kd amounted to 8.91 nM.
On the same count and under the same terms, the same measure for B2: 5.56 nM; for B3: 11.1 nM.

Another experiment deals with T2, human CD3 (human, UniProt P07766 23-126; P04234 22-105).
T2 construct: also called His-tagged human CD3; human CD3 (Acro CDD-H52W1)
The description is as above.
B1 gave a Kd of 17.4 nM.
Consider B2, for which the Kd was found to be 36.2 nM.
The molecule B3 had a Kd of 20.1 nM.

A further experiment has as its target T3, human 4-1BB (human, UniProt Q07011 24-186, limits assumed).
T3 construct: Soluble antigen in Octet; construct not described
The experiment is described as above.
Molecule B1 showed a Kd of 7.51 nM.
Still for that read-out and setting: the same measure for B2: 37.3 nM; for B3: 21.2 nM.

Another experiment addresses T4, human PD-L1 (human, UniProt Q9NZQ7 19-238).
T4 construct: Soluble antigen in Octet; bought; also called human PD-L1 (Acro PD1-H5229)
Described as above.
The molecule B1 gave a Kd of 1 nM.
The same measure, in the same setting: then B2, with 1.45 nM; and B3, with 2.7 nM.
